Assay results: PMC6021441, “Structural basis of the correct subunit assembly, aggregation, and intracellular degradation of nylon hydrolase” (Scientific Reports, 2018)

Experiments:
Test in all cases: crystal structure; sitting-drop vapor diffusion, ammonium sulfate, 0.1 M HEPES pH 7.5, 0.2 M NaCl, 25% glycerol; space group C222_(1), two molecules (A/B dimer) in the asymmetric unit, tetramer by the crystallographic two-fold axis
Settings in all cases: both partners purified
[1] = target: T1, NylCp2-Y^130 alpha subunit (H130Y) (Arthrobacter, UniProt Q79F77 1-266, H130Y)
T1 construct: NylCp2 alpha subunit with H130Y; also called α subunit of NylCp2-Y^130; source: E. coli JM109, purified with the beta subunit as the active enzyme
T1 sequence (looked up): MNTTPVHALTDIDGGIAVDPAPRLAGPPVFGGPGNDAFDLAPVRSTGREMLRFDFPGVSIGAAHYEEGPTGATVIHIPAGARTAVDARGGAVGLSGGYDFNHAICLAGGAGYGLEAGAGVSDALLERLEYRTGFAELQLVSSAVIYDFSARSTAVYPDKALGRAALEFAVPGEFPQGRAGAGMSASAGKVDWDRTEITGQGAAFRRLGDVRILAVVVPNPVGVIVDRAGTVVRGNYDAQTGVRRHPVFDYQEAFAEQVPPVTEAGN

[2] = target: T2, NylCp2-G^122Y^130A^36Q^263 alpha subunit (D122G/H130Y/D36A/E263Q) (Arthrobacter, UniProt Q79F77 1-266, D122G | H130Y | D36A | E263Q)
T2 construct: NylCp2 alpha subunit with four substitutions; also called α subunit of NylCp2-G^122Y^130A^36Q^263; source: E. coli JM109, purified with the beta subunit as the active enzyme
T2 sequence (looked up): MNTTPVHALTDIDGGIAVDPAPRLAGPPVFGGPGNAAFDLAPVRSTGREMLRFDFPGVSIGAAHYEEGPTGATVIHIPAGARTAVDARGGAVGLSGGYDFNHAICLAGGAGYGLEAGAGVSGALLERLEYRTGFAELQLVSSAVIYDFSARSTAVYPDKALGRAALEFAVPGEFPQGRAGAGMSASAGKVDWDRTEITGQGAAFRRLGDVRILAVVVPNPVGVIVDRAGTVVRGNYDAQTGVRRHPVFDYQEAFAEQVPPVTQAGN

[3] = target: T3, NylCp2-R^122 alpha subunit (D122R) (Arthrobacter, UniProt Q79F77 1-266, D122R)
T3 construct: NylCp2 alpha subunit with D122R; also called α subunit of NylCp2-R^122; source: E. coli JM109, purified with the beta subunit as the active enzyme
T3 sequence (looked up): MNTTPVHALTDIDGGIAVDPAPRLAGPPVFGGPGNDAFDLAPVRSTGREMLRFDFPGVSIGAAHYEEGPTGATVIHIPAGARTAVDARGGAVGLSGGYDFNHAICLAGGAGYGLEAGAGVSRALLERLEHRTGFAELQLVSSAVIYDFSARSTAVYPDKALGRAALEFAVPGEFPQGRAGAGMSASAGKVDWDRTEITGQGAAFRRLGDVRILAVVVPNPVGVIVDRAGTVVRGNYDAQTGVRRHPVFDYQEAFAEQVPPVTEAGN

[4] = target: T4, NylCp2-V^122 alpha subunit (D122V) (Arthrobacter, UniProt Q79F77 1-266, D122V)
T4 construct: NylCp2 alpha subunit with D122V; also called α subunit of NylCp2-V^122; source: E. coli JM109, purified with the beta subunit as the active enzyme
T4 sequence (looked up): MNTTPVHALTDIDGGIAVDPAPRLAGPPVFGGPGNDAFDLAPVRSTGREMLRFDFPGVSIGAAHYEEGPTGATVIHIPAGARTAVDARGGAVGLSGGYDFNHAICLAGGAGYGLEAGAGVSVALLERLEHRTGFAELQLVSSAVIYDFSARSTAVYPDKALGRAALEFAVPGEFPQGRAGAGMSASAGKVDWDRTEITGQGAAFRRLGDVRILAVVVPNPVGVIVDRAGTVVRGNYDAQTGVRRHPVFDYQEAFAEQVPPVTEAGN

[5] = target: T5, NylCp2-G^122Y^130 alpha subunit (D122G/H130Y) (Arthrobacter, UniProt Q79F77 1-266, D122G | H130Y)
T5 construct: NylCp2 alpha subunit with D122G and H130Y; also called α subunit of NylCp2-G^122Y^130; source: E. coli JM109, purified with the beta subunit as the active enzyme
T5 sequence (looked up): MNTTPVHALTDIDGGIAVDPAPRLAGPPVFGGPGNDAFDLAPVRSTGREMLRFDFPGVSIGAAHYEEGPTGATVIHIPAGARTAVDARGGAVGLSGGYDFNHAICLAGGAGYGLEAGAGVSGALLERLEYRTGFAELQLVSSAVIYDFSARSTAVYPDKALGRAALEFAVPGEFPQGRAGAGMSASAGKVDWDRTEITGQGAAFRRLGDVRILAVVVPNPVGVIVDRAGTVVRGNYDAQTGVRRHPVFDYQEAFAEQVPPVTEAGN

[6] = target: T6, NylCp2-G^122 alpha subunit (D122G) (Arthrobacter, UniProt Q79F77 1-266, D122G)
T6 construct: NylCp2 alpha subunit with D122G; also called α subunit of NylCp2-G^122; source: E. coli JM109, purified with the beta subunit as the active enzyme
T6 sequence (looked up): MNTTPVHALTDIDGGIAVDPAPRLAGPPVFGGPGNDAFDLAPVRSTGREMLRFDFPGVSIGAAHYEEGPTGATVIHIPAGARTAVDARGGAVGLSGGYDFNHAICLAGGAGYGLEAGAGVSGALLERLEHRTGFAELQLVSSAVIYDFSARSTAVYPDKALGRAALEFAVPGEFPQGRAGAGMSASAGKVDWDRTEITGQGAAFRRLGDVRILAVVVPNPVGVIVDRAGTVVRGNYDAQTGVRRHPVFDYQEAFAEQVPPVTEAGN

Measured: binding result

B1: NylCp2 beta subunit (9 kDa) (domain or fragment, Arthrobacter, UniProt Q79F77 267-355, looked up)
chain: TTISAIVTNVRMSPVELNQFAKQVHSSMHRGIQPFHTDMDGDTLFAVTTDEIDLPTTPGSSRGRLSVNATALGAIASEVMWDAVLEAGK
notes: NylCp2, beta subunit made by autocleavage of the 355-residue precursor between Asn266 and Thr267; the same in the wild type and in the mutants crystallised here (all their substitutions lie in the alpha subunit); also called β subunit; source: E. coli JM109, purified with the alpha subunit as the active enzyme
binds: all assays above
